Source: the Immune Epitope Database (IEDB)

How the values were obtained:
[1] = biological target: HLA-A*01:01; test: IEDB peptide-MHC binding, purified MHC/competitive/radioactivity; filed as Kd, often an IC50 or EC50 that approximates it; ≥ and ≤ were set here for values at or beyond the usual limits of such assays
[2] = biological target: HLA-A*23:01; test: as above
[3] = biological target: HLA-A*24:02; test: as above
[4] = biological target: HLA-A*26:01; test: as above
[5] = biological target: HLA-A*29:02; test: as above
[6] = biological target: HLA-A*30:02; test: as above
[7] = biological target: HLA-A*30:01; test: as above
[8] = biological target: HLA-A*32:01; test: as above
[9] = biological target: HLA-B*40:01; test: as above
[10] = biological target: HLA-B*44:03; test: as above; details: source organism: Dengue virus 3 Martinique/1243/1999
[11] = biological target: HLA-A*03:01; test: as above; details: source organism: Triticum aestivum
[12] = biological target: HLA-A*11:01; test: as above; details: source organism: Triticum aestivum
[13] = biological target: HLA-A*31:01; test: as above; details: source organism: Triticum aestivum
[14] = biological target: HLA-A*33:01; test: as above; details: source organism: Triticum aestivum
[15] = biological target: HLA-A*68:01; test: as above; details: source organism: Triticum aestivum
[16] = biological target: HLA-B*48:01; test: IEDB peptide-MHC binding, purified MHC/direct/fluorescence; filed as Kd, often an IC50 or EC50 that approximates it; ≥ and ≤ were set here for values at or beyond the usual limits of such assays
[17] = biological target: HLA-A*02:01; test: IEDB peptide-MHC binding, purified MHC/competitive/fluorescence; filed as Kd, often an IC50 or EC50 that approximates it; ≥ and ≤ were set here for values at or beyond the usual limits of such assays; details: source organism: Vaccinia virus Copenhagen
[18] = source organism: Mammarenavirus machupoense
[19] = source organism: Mammarenavirus whitewaterense
[20] = source organism: Dengue virus 3 Martinique/1243/1999
[21] = source organism: Triticum aestivum
[22] = source organism: Mammarenavirus guanaritoense
[23] = source organism: SARS coronavirus Tor2
[24] = source organism: Mammarenavirus lassaense
[25] = source organism: Mammarenavirus choriomeningitidis

RCWLIRNGSY
Kd [1, 18]: ≥ 37.7 µM | Kd [2, 18]: ≥ 34.7 µM | Kd [3, 18]: ≥ 70.3 µM | Kd [4, 18]: ≥ 69.7 µM | Kd [5, 18]: 4.81 µM | Kd [6, 18]: 0.0161 µM

RCWLTKNGSY
Kd [1, 19]: 18.9 µM | Kd [2, 19]: ≥ 70 µM | Kd [3, 19]: ≥ 70.3 µM | Kd [4, 19]: ≥ 23.3 µM | Kd [5, 19]: 8.92 µM | Kd [7, 19]: 3.79 µM | Kd [6, 19]: 0.0575 µM | Kd [8, 19]: ≥ 69.9 µM

RMLLNRFTM
Kd ([8]; source organism: Dengue virus 1 Brazil/97-11/1997): 0.0194 µM

SETQHGTIL
Kd [9, 20]: 0.00395 µM | Kd [10]: 0.127 µM

SFQQPQQQY
Kd [1, 21]: ≥ 68.9 µM | Kd [11]: ≥ 78 µM | Kd [12]: ≥ 77.9 µM | Kd [2, 21]: ≥ 77.8 µM | Kd [3, 21]: ≥ 77.6 µM | Kd [4, 21]: ≥ 43.7 µM | Kd [5, 21]: 0.0841 µM | Kd [6, 21]: ≥ 63.2 µM | Kd [13]: ≥ 77.9 µM | Kd [14]: ≥ 77.7 µM | Kd [15]: ≥ 77.7 µM

SMSEIINNI
Kd ([8]; source organism: Vaccinia virus WR): 0.245 µM

SRAWNVWEVE
Kd [8, 20]: ≥ 26.5 µM

SRLTYQWHK
Kd ([16]; source organism: Yellow fever virus): ≥ 20 µM

SWLDFDEKLV
Kd [1, 22]: 6.1 µM | Kd [2, 22]: 0.32 µM | Kd [3, 22]: 14 µM | Kd [4, 22]: ≥ 69.7 µM | Kd [5, 22]: ≥ 71.4 µM | Kd [6, 22]: 4.94 µM

TEEIAVQNWL
Kd ([9]; source organism: Dengue virus 2 Jamaica/1409/1983): 0.104 µM

TSQKSIVAY
Kd [1, 23]: 1.18 µM | Kd [2, 23]: ≥ 77.8 µM | Kd [3, 23]: ≥ 77.6 µM | Kd [4, 23]: 8.25 µM | Kd [5, 23]: 2.08 µM | Kd [6, 23]: 0.0254 µM

VGRAWENTI
Kd [1, 24]: ≥ 26.7 µM | Kd [2, 24]: 2.95 µM | Kd [3, 24]: 8.77 µM | Kd [4, 24]: ≥ 77.9 µM | Kd [5, 24]: ≥ 78.9 µM | Kd [6, 24]: 0.0991 µM

VLEDVQAAGI
Kd [17]: 0.232 µM

VTERIFREY
Kd [1, 25]: 0.00862 µM | Kd [4, 25]: ≥ 44.9 µM | Kd [5, 25]: 8.69 µM | Kd [7, 25]: 4.01 µM | Kd [6, 25]: 0.876 µM | Kd [8, 25]: 12.9 µM

VYIGDPAQL
Kd [1, 23]: ≥ 78.1 µM | Kd [2, 23]: 1.18 µM | Kd [3, 23]: 0.107 µM | Kd [4, 23]: ≥ 77.9 µM | Kd [5, 23]: ≥ 22.8 µM | Kd [6, 23]: ≥ 78.9 µM

WCEFVDFSV
Kd [1, 22]: 0.341 µM | Kd [2, 22]: ≥ 53.3 µM | Kd [3, 22]: ≥ 77.5 µM | Kd [4, 22]: ≥ 77.9 µM | Kd [5, 22]: 2.47 µM | Kd [6, 22]: 7.9 µM

YEEFCNAVY
Kd [1, 24]: 5.37 µM | Kd [2, 24]: 10.1 µM | Kd [3, 24]: ≥ 77.5 µM | Kd [4, 24]: ≥ 77.9 µM | Kd [5, 24]: 0.426 µM | Kd [6, 24]: 0.762 µM

YRLRGEARK
Kd ([16]; source organism: Dengue virus 1 Singapore/S275/1990): ≥ 20 µM
